Square brackets hold non-standard residues; d marks the D form. Peptide text beside a SMILES is read from it. * marks the point of attachment. X3 = O=C(CCCCCNCc1nc2c(sc3cc(Br)cnc32)c(=O)[nH]1)*
Tests used:
Experiment in all cases: Kinase profiling (radiometric filter-binding)
Assay type in all cases: biochemical
[1] = target: PAK4 (Homo sapiens, UniProt O96013); conditions: PAK4, 1 µM inhibitor; read-out: Residual activity, %
Outline: (§1)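 Single-point selectivity screen at 1 µM total inhibitor concentration across a panel of 139 or 140 human PKs, using radioactive filter-binding detection with ATP near or below KM; data are % activity remaining versus untreated control.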

[2] = target: T1, SGK1 (Homo sapiens, UniProt O00141); conditions: SGK1, 1 µM inhibitor; read-out: Residual activity, %
T1 sequence (O00141 1-431): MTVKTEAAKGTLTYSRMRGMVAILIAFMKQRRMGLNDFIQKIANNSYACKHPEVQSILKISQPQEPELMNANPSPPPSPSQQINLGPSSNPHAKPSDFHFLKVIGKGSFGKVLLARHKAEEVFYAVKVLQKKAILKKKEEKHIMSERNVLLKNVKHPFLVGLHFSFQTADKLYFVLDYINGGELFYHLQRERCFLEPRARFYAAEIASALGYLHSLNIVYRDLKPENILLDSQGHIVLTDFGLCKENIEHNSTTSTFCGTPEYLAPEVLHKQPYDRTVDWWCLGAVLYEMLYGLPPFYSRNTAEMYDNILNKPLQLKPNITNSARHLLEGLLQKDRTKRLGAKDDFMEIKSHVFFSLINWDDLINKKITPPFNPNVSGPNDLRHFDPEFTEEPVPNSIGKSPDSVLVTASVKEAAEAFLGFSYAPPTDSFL
Outline: as §1

[3] = target: EF2K (Homo sapiens, UniProt O00418); conditions: 1 µM inhibitor, read-out: Residual activity, %
Outline: as §1

[4] = target: HIPK3 (Homo sapiens, UniProt Q9H422); conditions: HIPK3, 1 µM inhibitor; read-out: Residual activity, %
Outline: as §1

[5] = target: SIK3 (Homo sapiens, UniProt Q9Y2K2); conditions: SIK3, 1 µM inhibitor; read-out: Residual activity, %
Outline: as §1

[6] = target: T2, PRAK (Homo sapiens, UniProt Q8IW41); conditions: 1 µM inhibitor, read-out: Residual activity, %
T2 sequence (Q8IW41 1-473): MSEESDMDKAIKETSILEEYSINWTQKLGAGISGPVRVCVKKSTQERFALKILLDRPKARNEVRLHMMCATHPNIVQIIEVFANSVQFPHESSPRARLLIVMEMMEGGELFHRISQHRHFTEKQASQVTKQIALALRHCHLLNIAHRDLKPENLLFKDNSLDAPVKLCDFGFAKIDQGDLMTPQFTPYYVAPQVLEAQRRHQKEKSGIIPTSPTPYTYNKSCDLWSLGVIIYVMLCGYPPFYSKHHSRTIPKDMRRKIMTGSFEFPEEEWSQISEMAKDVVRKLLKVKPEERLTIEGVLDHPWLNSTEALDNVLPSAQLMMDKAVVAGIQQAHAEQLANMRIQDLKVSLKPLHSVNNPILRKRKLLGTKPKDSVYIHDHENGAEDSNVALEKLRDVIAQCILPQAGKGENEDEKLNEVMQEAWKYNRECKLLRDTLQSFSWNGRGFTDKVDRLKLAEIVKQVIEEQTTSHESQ
Outline: as §1

[7] = target: Lck (Homo sapiens, UniProt P06239); conditions: 1 µM inhibitor, read-out: Residual activity, %
Outline: as §1

[8] = target: T3, TGFBR1 (Homo sapiens, UniProt P36897); conditions: TGFBR1, 1 µM inhibitor; read-out: Residual activity, %
T3 sequence (P36897 34-503): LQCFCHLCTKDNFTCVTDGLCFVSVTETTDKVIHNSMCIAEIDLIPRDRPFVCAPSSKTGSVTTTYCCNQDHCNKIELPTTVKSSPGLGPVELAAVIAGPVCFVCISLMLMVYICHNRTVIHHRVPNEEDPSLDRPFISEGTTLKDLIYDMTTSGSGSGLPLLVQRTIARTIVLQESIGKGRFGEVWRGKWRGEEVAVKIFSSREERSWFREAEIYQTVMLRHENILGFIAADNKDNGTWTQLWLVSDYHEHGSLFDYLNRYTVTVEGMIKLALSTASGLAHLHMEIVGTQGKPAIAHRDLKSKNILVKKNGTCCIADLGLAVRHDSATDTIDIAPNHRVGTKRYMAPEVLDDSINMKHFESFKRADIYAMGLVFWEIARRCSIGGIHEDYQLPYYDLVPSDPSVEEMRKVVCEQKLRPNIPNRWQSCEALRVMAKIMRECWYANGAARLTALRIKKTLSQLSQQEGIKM
Outline: as §1

[9] = target: MST4 (Homo sapiens, UniProt Q9P289); conditions: MST4, 1 µM inhibitor; read-out: Residual activity, %
Outline: as §1

[10] = target: MNK2 (Homo sapiens, UniProt Q9HBH9); conditions: MNK2, 1 µM inhibitor; read-out: Residual activity, %
Outline: as §1

[11] = target: JAK2 (Homo sapiens, UniProt O60674); conditions: JAK2, 1 µM inhibitor; read-out: Residual activity, %
Outline: as §1

Sequence of SIK3 (Q9Y2K2 whole entry): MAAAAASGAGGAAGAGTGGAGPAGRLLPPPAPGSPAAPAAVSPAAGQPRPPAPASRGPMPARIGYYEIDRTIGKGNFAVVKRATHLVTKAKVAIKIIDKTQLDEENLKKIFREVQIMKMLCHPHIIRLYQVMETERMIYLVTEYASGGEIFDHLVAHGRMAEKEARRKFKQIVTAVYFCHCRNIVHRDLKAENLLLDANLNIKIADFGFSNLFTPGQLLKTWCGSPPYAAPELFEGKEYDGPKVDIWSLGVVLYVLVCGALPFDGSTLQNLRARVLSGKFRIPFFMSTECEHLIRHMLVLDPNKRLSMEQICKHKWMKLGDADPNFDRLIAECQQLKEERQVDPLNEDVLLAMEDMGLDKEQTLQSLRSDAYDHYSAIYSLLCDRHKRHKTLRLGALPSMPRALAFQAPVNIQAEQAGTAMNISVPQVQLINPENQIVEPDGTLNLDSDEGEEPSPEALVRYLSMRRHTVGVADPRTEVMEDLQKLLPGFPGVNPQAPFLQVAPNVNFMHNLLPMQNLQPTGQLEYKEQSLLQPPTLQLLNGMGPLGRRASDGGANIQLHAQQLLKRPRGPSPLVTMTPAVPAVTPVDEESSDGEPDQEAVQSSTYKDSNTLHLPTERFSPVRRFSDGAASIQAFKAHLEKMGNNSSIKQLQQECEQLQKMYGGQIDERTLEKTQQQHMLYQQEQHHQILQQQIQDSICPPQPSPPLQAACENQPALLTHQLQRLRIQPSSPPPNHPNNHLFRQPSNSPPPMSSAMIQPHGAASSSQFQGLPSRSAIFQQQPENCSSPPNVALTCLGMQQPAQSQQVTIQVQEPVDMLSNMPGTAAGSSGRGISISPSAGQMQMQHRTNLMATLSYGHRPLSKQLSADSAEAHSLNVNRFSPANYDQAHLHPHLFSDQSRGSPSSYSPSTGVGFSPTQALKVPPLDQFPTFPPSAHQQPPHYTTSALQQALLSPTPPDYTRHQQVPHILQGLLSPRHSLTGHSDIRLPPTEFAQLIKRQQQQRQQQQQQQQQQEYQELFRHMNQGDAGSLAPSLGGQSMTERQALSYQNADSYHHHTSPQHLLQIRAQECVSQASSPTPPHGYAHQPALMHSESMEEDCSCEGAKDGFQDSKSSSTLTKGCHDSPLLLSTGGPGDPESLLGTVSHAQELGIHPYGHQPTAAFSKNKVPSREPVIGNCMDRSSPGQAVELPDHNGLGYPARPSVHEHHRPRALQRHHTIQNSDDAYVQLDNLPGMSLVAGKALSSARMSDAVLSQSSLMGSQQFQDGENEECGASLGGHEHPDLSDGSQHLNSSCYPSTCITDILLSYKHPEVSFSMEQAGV
Sequence of MST4 (Q9P289 whole entry): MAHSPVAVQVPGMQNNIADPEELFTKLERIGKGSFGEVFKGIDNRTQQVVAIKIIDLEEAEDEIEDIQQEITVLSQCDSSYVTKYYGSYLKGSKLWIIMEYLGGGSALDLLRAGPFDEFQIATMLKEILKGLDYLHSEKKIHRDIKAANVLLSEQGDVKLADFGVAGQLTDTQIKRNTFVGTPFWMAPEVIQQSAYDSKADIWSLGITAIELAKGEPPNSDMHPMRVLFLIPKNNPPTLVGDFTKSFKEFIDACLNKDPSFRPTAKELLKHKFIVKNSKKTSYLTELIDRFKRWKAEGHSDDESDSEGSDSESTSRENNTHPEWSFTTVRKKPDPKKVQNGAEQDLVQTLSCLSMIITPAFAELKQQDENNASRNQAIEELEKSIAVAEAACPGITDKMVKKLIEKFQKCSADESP
Sequence of JAK2 (O60674 whole entry): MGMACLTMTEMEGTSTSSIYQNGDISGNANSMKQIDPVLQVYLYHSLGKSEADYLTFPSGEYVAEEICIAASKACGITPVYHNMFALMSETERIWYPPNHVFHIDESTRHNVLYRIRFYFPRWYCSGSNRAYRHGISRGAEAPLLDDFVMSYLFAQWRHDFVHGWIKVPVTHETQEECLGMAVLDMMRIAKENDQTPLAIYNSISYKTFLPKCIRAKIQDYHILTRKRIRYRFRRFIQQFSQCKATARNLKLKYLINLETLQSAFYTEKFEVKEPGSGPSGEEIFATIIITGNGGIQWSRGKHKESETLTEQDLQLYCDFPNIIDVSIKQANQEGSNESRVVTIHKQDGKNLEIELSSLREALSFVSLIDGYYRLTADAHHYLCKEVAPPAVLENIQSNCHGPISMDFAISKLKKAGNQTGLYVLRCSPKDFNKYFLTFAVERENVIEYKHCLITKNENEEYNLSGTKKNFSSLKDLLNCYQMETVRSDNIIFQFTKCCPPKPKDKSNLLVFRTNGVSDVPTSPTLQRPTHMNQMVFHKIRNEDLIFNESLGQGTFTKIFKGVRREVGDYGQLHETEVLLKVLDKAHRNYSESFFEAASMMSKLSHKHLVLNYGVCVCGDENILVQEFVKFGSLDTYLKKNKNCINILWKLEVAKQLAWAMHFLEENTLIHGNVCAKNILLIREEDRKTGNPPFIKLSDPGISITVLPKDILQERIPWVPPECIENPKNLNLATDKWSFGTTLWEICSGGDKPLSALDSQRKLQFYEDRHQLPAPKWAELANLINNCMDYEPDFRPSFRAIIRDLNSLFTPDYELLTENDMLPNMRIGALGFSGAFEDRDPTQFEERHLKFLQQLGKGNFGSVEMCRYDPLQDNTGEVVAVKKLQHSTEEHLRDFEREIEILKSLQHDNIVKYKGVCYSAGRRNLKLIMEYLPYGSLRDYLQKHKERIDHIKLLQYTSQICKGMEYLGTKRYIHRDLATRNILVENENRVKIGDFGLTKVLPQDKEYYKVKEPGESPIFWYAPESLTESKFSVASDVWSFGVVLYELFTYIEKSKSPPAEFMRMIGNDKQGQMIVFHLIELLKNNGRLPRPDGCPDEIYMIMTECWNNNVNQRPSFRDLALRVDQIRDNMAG
Sequence of PAK4 (O96013 whole entry): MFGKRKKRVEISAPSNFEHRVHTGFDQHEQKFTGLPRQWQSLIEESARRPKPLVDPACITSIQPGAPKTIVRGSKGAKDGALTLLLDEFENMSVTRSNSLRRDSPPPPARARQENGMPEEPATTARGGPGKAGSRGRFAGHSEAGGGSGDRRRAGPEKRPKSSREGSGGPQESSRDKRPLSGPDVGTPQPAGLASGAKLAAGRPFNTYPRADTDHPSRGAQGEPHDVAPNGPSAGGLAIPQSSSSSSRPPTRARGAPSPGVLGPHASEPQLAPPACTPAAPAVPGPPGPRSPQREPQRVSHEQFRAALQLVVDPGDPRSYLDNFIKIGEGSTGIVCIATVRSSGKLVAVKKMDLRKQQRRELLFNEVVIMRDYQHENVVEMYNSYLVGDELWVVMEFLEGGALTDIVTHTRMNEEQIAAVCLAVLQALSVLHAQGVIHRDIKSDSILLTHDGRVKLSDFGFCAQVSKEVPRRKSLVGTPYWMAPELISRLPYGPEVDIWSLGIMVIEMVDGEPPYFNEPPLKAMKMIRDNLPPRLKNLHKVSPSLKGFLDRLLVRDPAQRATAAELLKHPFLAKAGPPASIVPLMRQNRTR
Sequence of HIPK3 (Q9H422 whole entry): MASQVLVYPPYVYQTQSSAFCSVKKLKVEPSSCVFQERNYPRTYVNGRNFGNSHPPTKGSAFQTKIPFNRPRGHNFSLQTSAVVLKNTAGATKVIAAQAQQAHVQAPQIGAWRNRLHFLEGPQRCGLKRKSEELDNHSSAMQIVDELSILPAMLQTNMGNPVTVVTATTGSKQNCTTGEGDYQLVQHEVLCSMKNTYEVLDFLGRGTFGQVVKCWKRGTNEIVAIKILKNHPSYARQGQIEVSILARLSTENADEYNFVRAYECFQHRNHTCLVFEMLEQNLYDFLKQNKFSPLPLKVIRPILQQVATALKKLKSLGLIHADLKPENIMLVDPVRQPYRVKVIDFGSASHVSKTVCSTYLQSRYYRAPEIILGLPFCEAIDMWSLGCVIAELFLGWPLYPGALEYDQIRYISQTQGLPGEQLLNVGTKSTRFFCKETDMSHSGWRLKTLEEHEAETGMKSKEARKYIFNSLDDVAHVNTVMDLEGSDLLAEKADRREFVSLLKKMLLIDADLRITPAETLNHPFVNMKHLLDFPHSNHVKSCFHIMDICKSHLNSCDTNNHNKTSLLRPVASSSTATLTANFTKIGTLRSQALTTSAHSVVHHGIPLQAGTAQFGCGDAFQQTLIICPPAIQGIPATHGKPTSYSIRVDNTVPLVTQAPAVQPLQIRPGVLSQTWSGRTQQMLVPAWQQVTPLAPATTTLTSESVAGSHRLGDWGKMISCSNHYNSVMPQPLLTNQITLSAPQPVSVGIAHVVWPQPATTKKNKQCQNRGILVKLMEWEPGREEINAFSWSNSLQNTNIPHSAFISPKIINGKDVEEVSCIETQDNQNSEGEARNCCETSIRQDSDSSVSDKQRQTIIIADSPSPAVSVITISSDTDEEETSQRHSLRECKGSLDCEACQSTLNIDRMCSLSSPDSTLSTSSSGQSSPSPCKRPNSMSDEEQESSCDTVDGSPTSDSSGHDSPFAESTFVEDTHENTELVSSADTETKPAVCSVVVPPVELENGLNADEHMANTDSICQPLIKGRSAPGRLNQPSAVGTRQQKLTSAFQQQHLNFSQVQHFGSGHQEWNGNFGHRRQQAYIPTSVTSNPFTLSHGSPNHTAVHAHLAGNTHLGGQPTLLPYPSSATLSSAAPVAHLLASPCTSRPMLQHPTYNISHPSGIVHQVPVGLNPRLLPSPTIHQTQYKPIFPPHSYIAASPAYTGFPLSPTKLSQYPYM

Structure (SMILES) | remaining activity at 1 µM [1] | remaining activity at 1 µM [2] | remaining activity at 1 µM [3] | remaining activity at 1 µM [4] | remaining activity at 1 µM [5] | remaining activity at 1 µM [6] | remaining activity at 1 µM [7] | remaining activity at 1 µM [8] | remaining activity at 1 µM [9] | remaining activity at 1 µM [10] | remaining activity at 1 µM [11]
N=C(N)NCCC[C@@H](NC(=O)CCCCCNC(=O)Cn1cnc2c(I)c(I)c(I)c(I)c21)C(=O)N[C@H](CCCNC(=N)N)C(=O)N[C@H](CCCNC(=N)N)C(=O)N[C@H](CCCNC(=N)N)C(=O)N[C@H](CCCNC(=N)N)C(=O)N[C@H](CCCNC(=N)N)C(=O)N[C@H](CCCCN)C(N)=O [ARC-3125, TIBI-CH2-C(=O)-Ahx-(D-Arg)6-D-Lys-NH2] | 50 ± 2% | 9 ± 5% | 103 ± 1% | 21% | 89 ± 7% | 112 ± 3% | 226 ± 7% | 108 ± 18% | 71 ± 4% | 19 ± 4% | 115 ± 5%
N=C(N)NCCC[C@@H](NC(=O)CCCCCNCc1nc2c(sc3cc(Br)cnc32)c(=O)[nH]1)C(=O)N[C@H](CCCNC(=N)N)C(=O)N[C@H](CCCNC(=N)N)C(=O)N[C@H](CCCNC(=N)N)C(=O)N[C@H](CCCNC(=N)N)C(=O)N[C@H](CCCNC(=N)N)C(=O)N[C@H](CCCCN)C(N)=O [ARC-3126, BPTP-Ahx-(D-Arg)6-D-Lys-NH2] (X3-[dR][dR][dR][dR][dR][dR][dK]-NH2) | 71 ± 42% | 75 ± 9% | 85 ± 10% | 93 ± 2% | 117 ± 15% | 97 ± 7% | 132 ± 28% | 109 ± 2% | 125 ± 22% | 84 ± 17% | 116 ± 9%
N=C(N)NCCC[C@@H](NC(=O)CNC(=O)[C@@H](CCCNC(=N)N)NC(=O)[C@@H](CCCNC(=N)N)NC(=O)CCCCCCCNCc1nc2c(sc3cc(Br)cnc32)c(=O)[nH]1)C(=O)N[C@H](CCCCN)C(N)=O [Compound 1, BPTP-Aoc-(D-Arg)2-Gly-D-Arg-D-Lys-NH2] | 91% | 110 ± 19% | 104 ± 2% | 116 ± 15% | 106 ± 2% | 104 ± 13% | 94 ± 18% | 103 ± 8% | 143 ± 10% | 80 ± 3% | 93 ± 14%
N=C(N)NCCC[C@@H](NC(=O)CNC(=O)[C@@H](CCCNC(=N)N)NC(=O)[C@@H](CCCNC(=N)N)NC(=O)CCCCCCCNCc1nc2c(sc3ccc(Br)cc32)c(=O)[nH]1)C(=O)N[C@H](CCCCN)C(N)=O [Compound 2, BBTP-Aoc-(D-Arg)2-Gly-D-Arg-D-Lys-NH2] | 98 ± 14% | 89 ± 3% | 98 ± 7% | 72 ± 12% | 97 ± 9% | 89% | 103 ± 18% | 106 ± 7% | 121 ± 8% | 47 ± 2% | 82 ± 16%
N=C(N)NCCC[C@@H](NC(=O)CNC(=O)[C@@H](CCCNC(=N)N)NC(=O)[C@@H](CCCNC(=N)N)NC(=O)Cn1cc(CNCc2nc3c(sc4ccc(Br)cc43)c(=O)[nH]2)nn1)C(=O)N[C@H](CCCCN)C(N)=O [Compound 3, BBTP-Amt-(D-Arg)2-Gly-D-Arg-D-Lys-NH2] | 77 ± 13% | 95 ± 4% | 102 ± 3% | 57 ± 7% | 66 ± 6% | 79 ± 7% | 78 ± 6% | 95 ± 10% | 95 ± 32% | 96 ± 10% | 72 ± 21%

Reference: article PMC8307404, “Crystal Structure-Guided Design of Bisubstrate Inhibitors and Photoluminescent Probes for Protein Kinases of the PIM Family” (Molecules, 2021)
